Experimental data published in US20240294593A1 (Genentech, published 2024).

T1: cynomolgus PD-1-His (cynomolgus monkey)
T1 chain: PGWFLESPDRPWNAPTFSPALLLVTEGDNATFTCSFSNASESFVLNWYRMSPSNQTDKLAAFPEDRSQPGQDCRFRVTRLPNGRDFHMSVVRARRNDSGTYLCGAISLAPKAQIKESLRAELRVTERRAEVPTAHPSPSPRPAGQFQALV


Legend:
human PD-1-His [1] = target: T2, human PD-1-His (human, UniProt Q15116 25-167, limits assumed); experiment: Octet (BLI), AHC biosensors capture the bivalent mAb, dipped into multiple concentrations of PD-1; KDapp per legend
T2 construct: Antigen of the Octet assays; not shown: His tag
Description: (§1) In particular, anti-human IgG-Fc (AHC) biosensors were used to capture the test articles and dipped into multiple concentrations of PD-1.

human PD-1-His [2] = target: T2, human PD-1-His; experiment: Octet (BLI), AHC capture of the bivalent mAb, PD-1 in solution
Description: as §1

human PD-1-His [3] = target: T2, human PD-1-His; experiment: Octet (BLI); antibody captured on anti-human Fc (AHC) biosensors and dipped into multiple concentrations of human PD-1-His
human PD-1-His [4] = target: T2, human PD-1-His; experiment: Octet affinity screen; bivalent IgG1 format; reference mAb C[PD-1]_H1L1
human PD-1-His [5] = target: T2, human PD-1-His; experiment: Octet
cynomolgus PD-1-His = target: T1, cynomolgus PD-1-His; experiment: Octet (BLI); antibody captured on anti-human Fc (AHC) biosensors and dipped into multiple concentrations of cynomolgus PD-1-His
human PD-1-His [6] = target: T2, human PD-1-His; experiment: Octet (BLI); XENP29706 loaded on the biosensor, analyte Sample ID XENP15593 at 300, 30, 3 nM; KD (M) printed in the legend under the plot

T2 sequence (Q15116 25-167 limits assumed): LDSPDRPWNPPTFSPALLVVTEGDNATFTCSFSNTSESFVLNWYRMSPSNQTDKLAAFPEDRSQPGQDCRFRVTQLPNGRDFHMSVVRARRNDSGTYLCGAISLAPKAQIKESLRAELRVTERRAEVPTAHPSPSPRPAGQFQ

Row | Binder | Kd (human PD-1-His [1]) [µM] | koff (human PD-1-His [2]) [s⁻¹] | kon (human PD-1-His [2]) [M⁻¹ s⁻¹] | further results
1 | H1.217_L1.1 (XENP32833) (antibody, human IgG1, kappa, V domains shown, VH substitution V111S/W112F (Xencor #); V99S/W100F (Kabat); also called mAb C[PD1]_H1.217_L1.1_IgG1_PVA_/S267K) VH: EVQLVESGGGLVQPGGSLRLSCAASGFTFSSFGMHWVRQAPGKGLEWVSYISSGSSIIYYADSVKGRFTISRDNAKNSLYLQMNSLRAEDTAVYYCARGGRLSFSPDYWGQGTLVTVSS VL: DIVMTQSPDSLAVSLGERATINCKSSQSLLHSGNQKNYLTWYQQKPGQPPKLLIYWASTRESGVPDRFTGSGSGTDFTLTISSLQAEDVAVYYCQNDYSYPFTFGSGTKLEIKR | 0.161 | 0.023 | 143000 | 
2 | H1.218_L1.1 (XENP32834) (antibody, human IgG1, kappa, V domains shown, VH substitution L110Q/W112F/S113T (Xencor #); L98Q/W100F/S100aT (Kabat); also called mAb C[PD1]_H1.218_L1.1_IgG1_PVA_/S267K) VH: EVQLVESGGGLVQPGGSLRLSCAASGFTFSSFGMHWVRQAPGKGLEWVSYISSGSSIIYYADSVKGRFTISRDNAKNSLYLQMNSLRAEDTAVYYCARGGRQVFTPDYWGQGTLVTVSS VL: DIVMTQSPDSLAVSLGERATINCKSSQSLLHSGNQKNYLTWYQQKPGQPPKLLIYWASTRESGVPDRFTGSGSGTDFTLTISSLQAEDVAVYYCQNDYSYPFTFGSGTKLEIKR | 0.0196 | 0.0013 | 66500 | 
3 | H1.219_L1.1 (XENP32835) (antibody, human IgG1, kappa, V domains shown, VH substitution R109S/V111Y/W112L (Xencor #) but R97S/V99Y/W100F in the Kabat column: the two columns disagree; also called mAb C[PD1]_H1.219_L1.1_IgG1_PVA_/S267K) VH: EVQLVESGGGLVQPGGSLRLSCAASGFTFSSFGMHWVRQAPGKGLEWVSYISSGSSIIYYADSVKGRFTISRDNAKNSLYLQMNSLRAEDTAVYYCARGGSLYLSPDYWGQGTLVTVSS VL: DIVMTQSPDSLAVSLGERATINCKSSQSLLHSGNQKNYLTWYQQKPGQPPKLLIYWASTRESGVPDRFTGSGSGTDFTLTISSLQAEDVAVYYCQNDYSYPFTFGSGTKLEIKR | 0.0248 | 0.00489 | 197000 | 
4 | H1.220_L1.1 (XENP32836) (antibody, human IgG1, kappa, V domains shown, VH substitution V111Y/W112F (Xencor #); V99Y/W100F (Kabat); also called mAb C[PD1]_H1.220_L1.1_IgG1_PVA_/S267K) VH: EVQLVESGGGLVQPGGSLRLSCAASGFTFSSFGMHWVRQAPGKGLEWVSYISSGSSIIYYADSVKGRFTISRDNAKNSLYLQMNSLRAEDTAVYYCARGGRLYFSPDYWGQGTLVTVSS VL: DIVMTQSPDSLAVSLGERATINCKSSQSLLHSGNQKNYLTWYQQKPGQPPKLLIYWASTRESGVPDRFTGSGSGTDFTLTISSLQAEDVAVYYCQNDYSYPFTFGSGTKLEIKR | 0.0399 | 0.00557 | 140000 | 
5 | H1.221_L1.1 (XENP32837) (antibody, human IgG1, kappa, V domains shown, VH substitution L110R/W112F (Xencor #); L98R/W100F (Kabat); also called mAb C[PD1]_H1.221_L1.1_IgG1_PVA_/S267K) VH: EVQLVESGGGLVQPGGSLRLSCAASGFTFSSFGMHWVRQAPGKGLEWVSYISSGSSIIYYADSVKGRFTISRDNAKNSLYLQMNSLRAEDTAVYYCARGGRRVFSPDYWGQGTLVTVSS VL: DIVMTQSPDSLAVSLGERATINCKSSQSLLHSGNQKNYLTWYQQKPGQPPKLLIYWASTRESGVPDRFTGSGSGTDFTLTISSLQAEDVAVYYCQNDYSYPFTFGSGTKLEIKR | 0.0351 | 0.00477 | 136000 | 
6 | H1.222_L1.1 (XENP32838) (antibody, human IgG1, kappa, V domains shown, VH substitution W112L/P114S (Xencor #) but W100F/P100bS in Kabat; also called mAb C[PD1]_H1.222_L1.1_IgG1_PVA_/S267K) VH: EVQLVESGGGLVQPGGSLRLSCAASGFTFSSFGMHWVRQAPGKGLEWVSYISSGSSIIYYADSVKGRFTISRDNAKNSLYLQMNSLRAEDTAVYYCARGGRLVLSSDYWGQGTLVTVSS VL: DIVMTQSPDSLAVSLGERATINCKSSQSLLHSGNQKNYLTWYQQKPGQPPKLLIYWASTRESGVPDRFTGSGSGTDFTLTISSLQAEDVAVYYCQNDYSYPFTFGSGTKLEIKR | 0.0494 | 0.00565 | 114000 | 
7 | H1.223_L1.1 (XENP32839) (antibody, human IgG1, kappa, V domains shown, VH substitution R109H/L110Q/W112F (Xencor #); R97H/L98Q/W100F (Kabat); also called mAb C[PD1]_H1.223_L1.1_IgG1_PVA_/S267K) VH: EVQLVESGGGLVQPGGSLRLSCAASGFTFSSFGMHWVRQAPGKGLEWVSYISSGSSIIYYADSVKGRFTISRDNAKNSLYLQMNSLRAEDTAVYYCARGGHQVFSPDYWGQGTLVTVSS VL: DIVMTQSPDSLAVSLGERATINCKSSQSLLHSGNQKNYLTWYQQKPGQPPKLLIYWASTRESGVPDRFTGSGSGTDFTLTISSLQAEDVAVYYCQNDYSYPFTFGSGTKLEIKR | 0.0354 | 0.00436 | 123000 | 
8 | H1.224_L1.1 (XENP32840) (antibody, human IgG1, kappa, V domains shown, VH substitution L110R/V111L/W112F (Xencor #); L98R/V99L/W100F (Kabat); also called mAb C[PD1]_H1.224_L1.1_IgG1_PVA_/S267K) VH: EVQLVESGGGLVQPGGSLRLSCAASGFTFSSFGMHWVRQAPGKGLEWVSYISSGSSIIYYADSVKGRFTISRDNAKNSLYLQMNSLRAEDTAVYYCARGGRRLFSPDYWGQGTLVTVSS VL: DIVMTQSPDSLAVSLGERATINCKSSQSLLHSGNQKNYLTWYQQKPGQPPKLLIYWASTRESGVPDRFTGSGSGTDFTLTISSLQAEDVAVYYCQNDYSYPFTFGSGTKLEIKR | 0.07 | 0.00416 | 59400 | 
9 | XENP28538 (humanized variant of mAb C, bivalent human IgG1) (antibody, V domains shown, Human IgG1 with E233P/L234V/L235A/G236del/S267K) VH: EVQLVESGGGLVKPGGSLRLSCAASGFTFSSFGMHWVRQAPGKGLEWVGYISSGSSIIYYADPVKGRFTISRDNSKNTLYLQMNSLKTEDTAVYYCARGGRLVWSPDYWGQGTLVTVSS VL: DIVMTQSPDSLAVSLGERATINCKSSQSLLNSGNQKNYLTWYQQKPGQPPKLLIYWASTRESGVPDRFTGSGSGTDFTLTISSLQAEDVAVYYCQNDYSYPFTFGSGTKLEIKR |  |  |  | binding result (human PD-1-His [3]): no binding
10 | mAb C[PD-1]_H1_L1.1 (bivalent IgG1) (antibody, V domains shown, Bivalent IgG1 format with E233P/L234V/L235A/G236_/S267K; copies: 2 + 2) VH: EVQLVESGGGLVQPGGSLRLSCAASGFTFSSFGMHWVRQAPGKGLEWVSYISSGSSIIYYADSVKGRFTISRDNAKNSLYLQMNSLRAEDTAVYYCARGGRLVWSPDYWGQGTLVTVSS VL: DIVMTQSPDSLAVSLGERATINCKSSQSLLHSGNQKNYLTWYQQKPGQPPKLLIYWASTRESGVPDRFTGSGSGTDFTLTISSLQAEDVAVYYCQNDYSYPFTFGSGTKLEIKR |  |  |  | fold improved affinity over WT (human PD-1-His [4]): > 2 fold; Kd (human PD-1-His [5]): 0.00546 µM; koff (human PD-1-His [5]): 0.000532 s⁻¹; kon (human PD-1-His [5]): 97300 M⁻¹ s⁻¹
11 | mab_C[PD-1]_H1_L1.3 (bivalent IgG1) (antibody, V domains shown, Bivalent IgG1 format with E233P/L234V/L235A/G236_/S267K; copies: 2 + 2) VH: EVQLVESGGGLVQPGGSLRLSCAASGFTFSSFGMHWVRQAPGKGLEWVSYISSGSSIIYYADSVKGRFTISRDNAKNSLYLQMNSLRAEDTAVYYCARGGRLVWSPDYWGQGTLVTVSS VL: DIVMTQSPDSLAVSLGERATINCKSSQSLLSSGNQKNYLTWYQQKPGQPPKLLIYWASTRESGVPDRFTGSGSGTDFTLTISSLQAEDVAVYYCQNDYSYPFTFGSGTKLEIKR |  |  |  | fold improved affinity over WT (human PD-1-His [4]): > 2 fold; Kd (human PD-1-His [5]): 0.0108 µM; koff (human PD-1-His [5]): 0.00165 s⁻¹; kon (human PD-1-His [5]): 153000 M⁻¹ s⁻¹
12 | XENP28536 (mAb C[PD-1]_H1L1, bivalent human IgG1) (antibody, V domains shown, Bivalent human IgG1 with E233P/L234V/L235A/G236del/S267K) VH: EVQLVESGGGLVQPGGSLRLSCAASGFTFSSFGMHWVRQAPGKGLEWVSYISSGSSIIYYADSVKGRFTISRDNAKNSLYLQMNSLRAEDTAVYYCARGGRLVWSPDYWGQGTLVTVSS VL: DIVMTQSPDSLAVSLGERATINCKSSQSLLNSGNQKNYLTWYQQKPGQPPKLLIYWASTRESGVPDRFTGSGSGTDFTLTISSLQAEDVAVYYCQNDYSYPFTFGSGTKLEIK |  |  |  | Kd (cynomolgus PD-1-His): 0.0358 µM
13 | XENP28537 (humanized variant of mAb C, bivalent human IgG1) (antibody, V domains shown, Human IgG1 with E233P/L234V/L235A/G236del/S267K) VH: EVQLVESGGGLVQPGGSLRLSCAASGFTFSSFGMHWVRQAPGKGLEWVSYISSGSSIIYYADSVKGRFTISRDNAKNSLYLQMNSLRAEDTAVYYCARGGRLVWSPDYWGQGTLVTVSS VL: DIVMTQSPLSLPVTPGEPASISCRSSQSLLNSGNQKNYLTWYLQKPGQPPQLLIYWASTRESGVPDRFTGSGSGTDFTLKISRVEAEDVGVYYCQNDYSYPFTFGSGTKLEIKR |  |  |  | Kd (cynomolgus PD-1-His): 0.042 µM
14 | XENP28539 (humanized variant of mAb C, bivalent human IgG1) (antibody, V domains shown, Human IgG1 with E233P/L234V/L235A/G236del/S267K) VH: EVQLVESGGGLVKPGGSLRLSCAASGFTFSSFGMHWVRQAPGKGLEWVGYISSGSSIIYYADPVKGRFTISRDNSKNTLYLQMNSLKTEDTAVYYCARGGRLVWSPDYWGQGTLVTVSS VL: DIVMTQSPLSLPVTPGEPASISCRSSQSLLNSGNQKNYLTWYLQKPGQPPQLLIYWASTRESGVPDRFTGSGSGTDFTLKISRVEAEDVGVYYCQNDYSYPFTFGSGTKLEIKR |  |  |  | binding result (human PD-1-His [3]): no binding
15 | XENP28519 (humanized mAb A, bivalent mAb) (antibody, human IgG1, kappa, V domains shown) VH: QVQLQESGPGLVKPSQTLSLTCTVSGHSITSDYAWNWIRQPPGKKLEWIGYISYSGYTTYNPSLKSRVTISRDTSKNQFSLKLSSVTAADTAVYFCARDLDYGPWFAYWGQGTLVTVSS VL: DIQMTQSPSSLSASVGDRVTITCRASENIHNYLAWYQQKPGKSPKLLVYNVKTLADGVPSRFSGSGSGTDYTLTISSLQPEDFATYYCQHFWSSPWTFGGGTKVEIKR |  |  |  | Kd (human PD-1-His [3]): 0.0119 µM
16 | XENP29706 (W100F) (antibody, V domains shown, the panel label gives the substitution; also called mAb C[PD-1]_H1L1 W100F (Kabat) variant; copies: 2 + 2) VH: EVQLVESGGGLVQPGGSLRLSCAASGFTFSSFGMHWVRQAPGKGLEWVSYISSGSSIIYYADSVKGRFTISRDNAKNSLYLQMNSLRAEDTAVYYCARGGRLVFSPDYWGQGTLVTVSS VL: DIVMTQSPDSLAVSLGERATINCKSSQSLLNSGNQKNYLTWYQQKPGQPPKLLIYWASTRESGVPDRFTGSGSGTDFTLTISSLQAEDVAVYYCQNDYSYPFTFGSGTKLEIKR |  |  |  | Kd (human PD-1-His [6]): 0.309 µM
